Source: US20100291097A1

Experiments:
[1] = target: Oligomer-enriched preparation of the Aβ1-42 peptide (W. M. Keck Facility peptide); assay: ELISA, coated 2.2 µM; Ab 1:64 (start 0.5 µg/ml); mean of 3
[2] = target: Monomer-enriched preparation of the Aβ1-42 peptide (W. M. Keck Facility peptide); assay: ELISA, coated 2.2 µM; Ab 1:16 (start 0.5 µg/ml); mean of 3
[3] = target: Oligomer-enriched preparation of the Aβ1-42 peptide (W. M. Keck Facility peptide); assay: ELISA, coated 2.2 µM; Ab 1:128 (start 0.5 µg/ml); mean of 3
[4] = target: Monomer-enriched preparation of the Aβ1-42 peptide (W. M. Keck Facility peptide); assay: ELISA, coated 2.2 µM; Ab 1:32 (start 0.5 µg/ml); mean of 3
[5] = target: Oligomer-enriched preparation of the Aβ1-42 peptide (W. M. Keck Facility peptide); assay: as above
[6] = target: Monomer-enriched preparation of the Aβ1-42 peptide (W. M. Keck Facility peptide); assay: ELISA, coated 2.2 µM; Ab 1:2 (start 0.5 µg/ml); mean of 3
[7] = target: Oligomer-enriched preparation of the Aβ1-42 peptide (W. M. Keck Facility peptide); assay: as above
[8] = target: Monomer-enriched preparation of the Aβ1-42 peptide (W. M. Keck Facility peptide); assay: ELISA, coated 2.2 µM; Ab 1:4 (start 0.5 µg/ml); mean of 3
[9] = target: Oligomer-enriched preparation of the Aβ1-42 peptide (W. M. Keck Facility peptide); assay: ELISA, coated 2.2 µM; Ab 1:8 (start 0.5 µg/ml); mean of 3

Chain of Oligomer-enriched preparation of the Aβ1-42 peptide (W. M. Keck Facility peptide) (peptide, as listed by the source): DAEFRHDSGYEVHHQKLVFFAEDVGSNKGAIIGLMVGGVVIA
Chain of Monomer-enriched preparation of the Aβ1-42 peptide (W. M. Keck Facility peptide) (peptide, as listed by the source): as above

- O.D. [1]: 0.92 O.D.
- O.D. [2]: 1.98 O.D.
- O.D. [3]: 0.63 O.D.
- O.D. [4]: 1.36 O.D.
- O.D. [5]: 1.32 O.D.
- O.D. [6]: 3.59 O.D.
- O.D. [7]: 3.59 O.D.
- O.D. [8]: 3.27 O.D.
- O.D. [9]: 2.98 O.D.
Substance: 6E10 control antibody
